Measurements published in patent publication US20210393777A1.

Assays:
LDLR (human) = LDLR (human) (UniProt P01130)
[1] = target: human PCSK9-D347Y (human) (UniProt Q8NBP7); assay: cell-based or functional assay

LDLR (human), sequence (P01130 22-860): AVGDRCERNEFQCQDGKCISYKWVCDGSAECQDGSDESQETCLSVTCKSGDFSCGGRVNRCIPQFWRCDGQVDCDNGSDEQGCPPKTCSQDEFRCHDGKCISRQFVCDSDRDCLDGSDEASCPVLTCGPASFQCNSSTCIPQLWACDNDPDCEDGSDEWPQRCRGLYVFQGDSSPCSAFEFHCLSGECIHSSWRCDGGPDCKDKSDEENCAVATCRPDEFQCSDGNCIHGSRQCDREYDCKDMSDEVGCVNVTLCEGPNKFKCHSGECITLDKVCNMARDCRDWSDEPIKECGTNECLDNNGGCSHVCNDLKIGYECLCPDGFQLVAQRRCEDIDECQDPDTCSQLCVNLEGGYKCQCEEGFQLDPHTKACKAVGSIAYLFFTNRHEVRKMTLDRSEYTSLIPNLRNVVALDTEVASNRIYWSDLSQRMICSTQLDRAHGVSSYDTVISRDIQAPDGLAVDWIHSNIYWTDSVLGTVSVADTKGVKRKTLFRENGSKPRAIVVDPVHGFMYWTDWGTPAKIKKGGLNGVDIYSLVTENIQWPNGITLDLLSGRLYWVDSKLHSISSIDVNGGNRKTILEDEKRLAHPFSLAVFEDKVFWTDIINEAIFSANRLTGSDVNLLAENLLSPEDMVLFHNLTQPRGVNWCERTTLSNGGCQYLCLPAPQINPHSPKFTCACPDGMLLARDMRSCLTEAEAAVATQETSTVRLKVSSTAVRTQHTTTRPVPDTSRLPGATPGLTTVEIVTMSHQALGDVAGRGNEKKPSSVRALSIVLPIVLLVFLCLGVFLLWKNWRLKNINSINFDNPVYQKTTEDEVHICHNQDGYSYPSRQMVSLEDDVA

For “Cynomolgus monkey PCSK9 (from UniProt A0A7N9D9N8) (enzyme)”, the IC50 of the fall in RFU as PCSK9 concentration rises ('Inhibition of different PCSK9 antigen species'; binding and uptake of LDL by cells) (LDLR (human)) was 2.46 µg/mL.
JS002 (antibody) showed a Biological activity (LDL uptake assay in HepG2 cells), formulation 20, 25 C, month 0 (% of reference standard) [1] of 104, a Biological activity (LDL uptake assay in HepG2 cells), formulation 20, 25 C, month 1 (% of reference standard) [1] of 94.2 and a Biological activity (LDL uptake assay in HepG2 cells), formulation 20, 25 C, month 3 (% of reference standard) [1] of 92.6. It also gave a Biological activity (LDL uptake assay in HepG2 cells), formulation 20, 25 C, month 6 (% of reference standard) [1] of 81.1, a Biological activity (LDL uptake assay in HepG2 cells), formulation 28, 2-8 C, month 0 (% of reference standard) [1] of 120 and a Biological activity (LDL uptake assay in HepG2 cells), formulation 28, 2-8 C, month 1 (% of reference standard) [1] of 106. For the same substance, the Biological activity (LDL uptake assay in HepG2 cells), formulation 28, 2-8 C, month 2 (% of reference standard) [1] was 111, the Biological activity (LDL uptake assay in HepG2 cells), formulation 28, 2-8 C, month 3 (% of reference standard) [1] was 109 and the Biological activity (LDL uptake assay in HepG2 cells), formulation 28, 2-8 C, month 6 (% of reference standard) [1] was 106. For the same substance, the Biological activity (LDL uptake assay in HepG2 cells), formulation 28, 2-8 C, month 9 (% of reference standard) [1] was 104, the Biological activity (LDL uptake assay in HepG2 cells), formulation 28, 2-8 C, month 12 (% of reference standard) [1] was 109 and the Biological activity (LDL uptake assay in HepG2 cells), formulation 29, 2-8 C, month 0 (% of reference standard) [1] was 102. The Biological activity (LDL uptake assay in HepG2 cells), formulation 29, 2-8 C, month 1 (% of reference standard) [1] was 103, the Biological activity (LDL uptake assay in HepG2 cells), formulation 29, 2-8 C, month 2 (% of reference standard) [1] was 97.3 and the Biological activity (LDL uptake assay in HepG2 cells), formulation 29, 2-8 C, month 3 (% of reference standard) [1] was 90.3. The Biological activity (LDL uptake assay in HepG2 cells), formulation 29, 2-8 C, month 6 (% of reference standard) [1] was 84.9, the Biological activity (LDL uptake assay in HepG2 cells), formulation 29, 2-8 C, month 9 (% of reference standard) [1] was 103 and the Biological activity (LDL uptake assay in HepG2 cells), formulation 29, 2-8 C, month 12 (% of reference standard) [1] was 97.7. The Biological activity (LDL uptake assay in HepG2 cells), formulation 30, 2-8 C, month 0 (% of reference standard) [1] was 114, the Biological activity (LDL uptake assay in HepG2 cells), formulation 30, 2-8 C, month 1 (% of reference standard) [1] was 94.6 and the Biological activity (LDL uptake assay in HepG2 cells), formulation 30, 2-8 C, month 2 (% of reference standard) [1] was 96.8. It also gave a Biological activity (LDL uptake assay in HepG2 cells), formulation 30, 2-8 C, month 3 (% of reference standard) [1] of 98.7, a Biological activity (LDL uptake assay in HepG2 cells), formulation 30, 2-8 C, month 6 (% of reference standard) [1] of 92.3 and a Biological activity (LDL uptake assay in HepG2 cells), formulation 30, 2-8 C, month 9 (% of reference standard) [1] of 106. The Biological activity (LDL uptake assay in HepG2 cells), formulation 30, 2-8 C, month 12 (% of reference standard) [1] was 97.2, the Biological activity (LDL uptake assay in HepG2 cells), formulation 31, 2-8 C, month 0 (% of reference standard) [1] was 122 and the Biological activity (LDL uptake assay in HepG2 cells), formulation 31, 2-8 C, month 1 (% of reference standard) [1] was 97.9. For the same substance, the Biological activity (LDL uptake assay in HepG2 cells), formulation 31, 2-8 C, month 2 (% of reference standard) [1] was 83.5, the Biological activity (LDL uptake assay in HepG2 cells), formulation 31, 2-8 C, month 3 (% of reference standard) [1] was 107 and the Biological activity (LDL uptake assay in HepG2 cells), formulation 31, 2-8 C, month 6 (% of reference standard) [1] was 108. The Biological activity (LDL uptake assay in HepG2 cells), formulation 31, 2-8 C, month 9 (% of reference standard) [1] was 87.8, the Biological activity (LDL uptake assay in HepG2 cells), formulation 31, 2-8 C, month 12 (% of reference standard) [1] was 102 and the EC50, uptake of fluorescently labeled LDL by HepG2 cells exposed to human PCSK9-D347Y [1] was 0.0927 µg/mL.
For evolocumab (antibody), the EC50, uptake of fluorescently labeled LDL by HepG2 cells exposed to human PCSK9-D347Y [1] was 0.151 µg/mL.
